From patent US20200176073A1

Target: CXCR4 cognate ligand SDF1a (or CCL12) (UniProt P48061)
Test: ELISA, water-soluble CXCR4 with CCL12 (SDF1a), assay concentrations 50 nM to 10 uM

Sequence of CXCR4 cognate ligand SDF1a (or CCL12) (P48061 22-89 limits assumed): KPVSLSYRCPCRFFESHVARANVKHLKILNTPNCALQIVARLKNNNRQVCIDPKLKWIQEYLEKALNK

Kd: 80 nM
Substance: water-soluble CXCR4-QTY protein, produced in E. coli BL21 (DE3) and purified with 1D4 rho-tag monoclonal antibody (receptor)
